Data on three molecules can be found in article PMC10992290, “In vitro biosynthesis of ATP from adenosine and polyphosphate” (Bioresources and Bioprocessing, 2021).

Assay in all cases: HPLC nucleotide assay
For data set [1], the target named is T1, AtAdk (Arabidopsis thaliana, UniProt Q9LZG0).
T1 construct: gene ADK2
In kind it is biochemical. The following applies: phosphate donor; 10 mM adenosine, 20 mM MgCl2, Tris-HCl pH 8.0, 45 °C.

Substrate in data set [2]: Nc1ncnc2c1ncn2[C@@H]1O[C@H](COP(=O)(O)O)[C@@H](O)[C@H]1O
It is filed as biochemical, Lampropedia hyalina. The note with it: polyP6 as phosphate donor, MgCl2, Tris-HCl pH 8.0, 37 °C (routine assay). From the text:
HPLC nucleotide assay on LhPPK

Substrate in data set [3]: Nc1ncnc2c1ncn2[C@@H]1O[C@H](COP(=O)(O)OP(=O)(O)O)[C@@H](O)[C@H]1O
In kind it is biochemical, Sulfurovum lithotrophicum. The following applies: polyP6 as phosphate donor, MgCl2, Tris-HCl pH 8.0, 37 °C (routine assay). From the text: HPLC nucleotide assay on SlPPK

T1 sequence (Q9LZG0 whole entry): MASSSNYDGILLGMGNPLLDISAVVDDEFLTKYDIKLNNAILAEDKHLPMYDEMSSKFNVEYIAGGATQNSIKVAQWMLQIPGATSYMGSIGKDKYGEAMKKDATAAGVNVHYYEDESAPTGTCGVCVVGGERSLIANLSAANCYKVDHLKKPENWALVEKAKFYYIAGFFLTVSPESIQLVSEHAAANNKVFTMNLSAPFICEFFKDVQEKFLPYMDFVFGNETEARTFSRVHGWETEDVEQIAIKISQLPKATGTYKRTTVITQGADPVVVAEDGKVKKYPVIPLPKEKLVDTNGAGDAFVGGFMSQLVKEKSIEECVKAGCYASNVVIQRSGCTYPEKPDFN

For the molecule `Nc1ncnc2c1ncn2[C@@H]1O[C@H](COP(=O)(O)OP(=O)(O)OP(=O)(O)O)[C@@H](O)[C@H]1O` [ATP], in data set [1], the HPLC nucleotide assay result is “conversion of adenosine to AMP by AtAdk, which required ATP as a phosphate donor”.

B1: LhPPK (Lampropedia hyalina DSM 16112) (protein)
chain: MTRKESPPMEAFKKYRISPKNTLKDIDPSDKPFSFGTKKDELQRLDELAVELDDLQNTLYAGKRRKVLLILQGLDTSGKDGTIRWVFSRTSPLGVHVAAFKAPSERERAHDFLWRCHAVVPANGELTVWNRSHYEDVLVPPVEGWIDKAETQRRYGHINDFERLLSETGTTIVKCMLHISNEEQRERLQDRLKDPGKNWKFAADDLSTRAKWNDYQRAYEQALQATSTPHAPWYVIPANSKRHRNLMVAQLLVQTLRDMKLRLPPPNLAFKDLVVN
For the molecule B1, in data set [2], the Km turned out to be 5.70 mM, the Vmax was 860 µM/min, the kcat stood at 92 s⁻¹ and the kcat/Km came out at 16100 M⁻¹ s⁻¹.

B2: SlPPK (Sulfurovum lithotrophicum) (protein)
chain: MKKNIYKKELYKLQVELVKFQKYVIEENVAVCLVLEGRDTAGKDGTIKRFTEHLSPREARTVALGVPSDKEKKSWYFQRYVPHLPSAGEIVFFNRSWYNRAGVEKVMGFCTKKQYKAFMEEVGSFEQMLTHSNIRFFKYYLDITKKEQKKRLEARKTDPLKQWKLSPIDAKAQKMWDAYSKARDDMFNKTSFIYAPWYVVHTDDKKEARINIMKHFLSLNDYPDKDKALLVYDHDVICKFDPVCYEKEMIAP
In the case of B2, in data set [3], the Km was 0.61 mM, the Vmax was 1400 µM/min, the kcat came out at 140 s⁻¹ and the kcat/Km was 230000 M⁻¹ s⁻¹.
